Reference: IntAct's records for PubMed 18093972

B1: Homeodomain-interacting protein kinase 2 (Mus musculus), Q9QZR5 (parent)
chain: MAPVYEGMASHVQVFSPHTLQSSAFCSVKKLKVEPSSNWDMTGYGSHSKVYSQSKNIPPSQPASTTVSTSLPIPNPSLPYEQTIIFPGSTGHIVVTSASSTSVTGQVLGGPHNLMRRSTVSLLDTYQKCGLKRKSEEIENTSSVQIIEEHPPMIQNNASGATVATATTSTATSKNSGSNSEGDYQLVQHEVLCSMTNTYEVLEFLGRGTFGQVVKCWKRGTNEIVAIKILKNHPSYARQGQIEVSILARLSTESADDYNFVRAYECFQHKNHTCLVFEMLEQNLYDFLKQNKFSPLPLKYIRPVLQQVATALMKLKSLGLIHADLKPENIMLVDPSRQPYRVKVIDFGSASHVSKAVCSTYLQSRYYRAPEIILGLPFCEAIDMWSLGCVIAELFLGWPLYPGASEYDQIRYISQTQGLPAEYLLSAGTKTTRFFNRDTDSPYPLWRLKTPDDHEAETGIKSKEARKYIFNCLDDMAQVNMTTDLEGSDMLVEKADRREFIDLLKKMLTIDADKRVTPIETLNHPFVTMTHLLDFPHSAHVKSCFQNMEICKRRVNMYDTVNQSKTPFITHVAPSTSTNLTMTFNNQLTTVHNQAPTTSSATLSLANPEVSILNYQSALYQPSAASMAAVAPRSMPLQTGTAQICARPDPFQQALIVCPPGFQGLQASPSKHAGYSVRMENAVPIVTQAPGAQPLQIQPGLLAQQAWPGGAQQILLPPAWQQLTGVATHTSVQHAAVIPETMAGTQQLADWRNTHAHGSHYNPIMQQPALLTGHVTLPAAQPLNVGVAHVMRQQPTSTTSSRKSKQHQSSVRNVSTCEVTSSQAISSPQRSKRVKENTPPRCAMVHSSPACSTSVTCGWGDVASSTTRERQRQTIVIPDTPSPTVSVITISSDTDEEEEQKHAPTSTVSKQRKNVISCVTVHDSPYSDSSSNTSPYSVQQRTGHNGTNTLDTKGGLENHCTGNPRTIIVPPLKTQASEVLVECDSLGPAISASHHSSSFKSKSSSTVTSTSGHSSGSSSGAIAYRQQRPGPHFQQQQPLNLSQAQQHMAADRTGSHRRQQAYITPTMAQAPYTFPHNSPSHGTVHPHLAAAAHLPTQPHLYTYTAPTALGSTGTVAHLVASQGSARHTVQHTAYPASIVHQVPVSMGPRVLPSPTIHPSQYPAQFAHQTYISASPASTVYTGYPLSPAKVNQYPYI
partner: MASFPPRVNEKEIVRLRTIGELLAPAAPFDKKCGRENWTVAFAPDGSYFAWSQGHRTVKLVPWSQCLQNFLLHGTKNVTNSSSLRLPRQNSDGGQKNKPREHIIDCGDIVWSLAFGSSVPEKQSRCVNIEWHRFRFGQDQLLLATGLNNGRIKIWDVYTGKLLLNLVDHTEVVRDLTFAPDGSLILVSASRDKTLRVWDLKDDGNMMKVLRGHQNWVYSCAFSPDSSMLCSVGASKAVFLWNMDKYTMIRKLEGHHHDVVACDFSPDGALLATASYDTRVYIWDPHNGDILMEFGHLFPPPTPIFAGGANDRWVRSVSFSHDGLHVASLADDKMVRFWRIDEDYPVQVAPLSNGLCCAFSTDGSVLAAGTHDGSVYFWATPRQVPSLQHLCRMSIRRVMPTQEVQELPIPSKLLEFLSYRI

Variants of: B1
Details: with wsb1_human WSB1, Q9Y6I7

Variant | effect of a mutation on the interaction
K228R | increasing interaction
